These results are taken from patent US20030203869A1.

The target in the experiment is purified HLA-A2.1 molecules (human). The experiment is described as follows: inhibition of binding of a labeled reference peptide to purified HLA-A2.1.

The term IC50 denotes the concentration at which inhibition is half-maximal. Substance “HBV Core 18 (HBV core 18-27) CTL epitope peptide […] (peptide; other documents disagree on this pair)” registered an IC50 of 0.003 µM.

On to “HBV Pol 551-A (native HBV pol 551-559) CTL epitope peptide […] (peptide; other documents disagree on this pair)”, for which the IC50 came out at 0.2 µM.

The substance “HIV Pol 476 (HIV pol 476-484) CTL epitope peptide […] (peptide; other documents disagree on this pair)” had an IC50 of 0.192 µM.
